Legend:
[1] = format: physicochemical; conditions: pH 7.4
Procedure: The trimers were labeled with ^68Ga for biodistribution and small-animal PET experiments employing a fully automated method.[39] Non-radioactive reference compounds were obtained by complexation of equimolar amounts of ^natGa^3+ in form of the aq. chloride solution.[39] The polarity of the ^68Ga or ^natGa^3+ containing conjugates, respectively, was assessed by two established proxies, namely the n-octanol/water distribution coefficient at pH 7.4, log D7.4, and the retention time tR on a reverse-phase HPLC column with a suitable liquid-phase gradient (10–50% acetonitrile in water with 0.1% trifluoroacetic acid) (see Fig. 2a). […] A measurable decrease of the log D7.4 was only observed for ≥3 Tyr. […]
(§1) Unless otherwise noted, the materials and the instrumentation used (analytical and preparative HPLC, ESI-MS, gamma counter, centrifuge), and the experimental procedures (^68Ga radiolabeling and radio-TLC for quality control, determination of log D7.4, cultivation of H2009 human lung adenocarcinoma cells, generation of tumor xenografts in CB17 SCID mice, small-animal PET, and biodistribution) were described before.[19] All animal experiments have been carried out according to applicable law and institutional guidelines of Technical University of Munich, and were approved by the responsible local authority (Regierung von Oberbayern). The H2009 cells were regularly authenticated and tested for mycoplasma contamination. The affinities of the pentynoic amide functionalized peptides were determined employing a well-established ELISA protocol on immobilized integrins.[36] TRAP-triazide,[38]FF (previously termed AvB6),[32] and YY (also referred to as Tyr2-alkyne)[33] were synthesized as described previously. RP-HPLC for assessment of compound polarity was done on a 150 × 4.6 mm ReproSil-Pur 120 C18-AQ 5 μm column, with a flow of 0.75 mL min^−1 and a gradient of 10–50% MeCN in water, both containing 0.1% trifluoroacetic acid, within 15 min. The required ^natGa-complexes of the peptide trimers were synthesized by reaction with equimolar amounts of aq. GaCl3 as described.[19]

in vivo = experiment: in vivo; parameters: species or system mice; conditions: CB17 SCID, mouse, total radioactivity
Source text: The biodistribution of all ^68Ga-labeled peptide trimers was investigated in severe combined immunodeficiency (SCID) mice bearing subcutaneous xenografts of the αvβ6-integrin expressing human lung adenocarcinoma cell line H2009 on their right shoulders.
as §1

[2] = tumor/organ ratio Heart (myocard)
[3] = tumor/organ ratio Large intestine (empty)
[4] = tumor/organ ratio Small intestine (empty)
[5] = tumor/organ ratio Stomach (empty)

Row | SMILES | log D7.4 [1] | logD [1] | tissue uptake at 1.5 h (in vivo; Adrenals uptake) | tissue uptake at 1.5 h (in vivo; Blood uptake) | tissue uptake at 1.5 h (in vivo; Heart (myocard) uptake) | tissue uptake at 1.5 h (in vivo; Kidneys uptake) | tissue uptake at 1.5 h (in vivo; Large intestine (empty) uptake) | tissue uptake at 1.5 h (in vivo; Liver uptake) | tissue uptake at 1.5 h (in vivo; Lung uptake) | tissue uptake at 1.5 h (in vivo; Muscle uptake) | tissue uptake at 1.5 h (in vivo; Pancreas uptake) | tissue uptake at 1.5 h (in vivo; Small intestine (empty) uptake) | tissue uptake at 1.5 h (in vivo; Spleen uptake) | tissue uptake at 1.5 h (in vivo; Stomach (empty) uptake) | tissue uptake at 1.5 h (in vivo; Tumor H2009 uptake) | tissue to tissue ratio at 1.5 h (in vivo; tumor/organ ratio Adrenals) | tissue to tissue ratio at 1.5 h (in vivo; tumor/organ ratio Blood) | tissue to tissue ratio at 1.5 h (in vivo; [2]) | tissue to tissue ratio at 1.5 h (in vivo; tumor/organ ratio Kidneys) | tissue to tissue ratio at 1.5 h (in vivo; [3]) | other results
1 | CC(C)C[C@@H]1NC(=O)[C@H](CC(=O)O)NC(=O)CNC(=O)[C@H](CCCNC(=N)N)NC(=O)[C@H](Cc2ccccc2)NC(=O)[C@H](CCCCNC(=O)CCc2cn(CCCNC(=O)CCP(=O)(O)CN3CCN(CP(=O)(O)CCC(=O)NCCCn4cc(CCC(=O)NCCCC[C@H]5C(=O)N[C@@H](Cc6ccccc6)C(=O)N[C@@H](CCCNC(=N)N)C(=O)NCC(=O)N[C@@H](CC(=O)O)C(=O)N[C@@H](CC(C)C)C(=O)N[C@@H](C)C(=O)N[C@@H](Cc6ccccc6)C(=O)N6CCC[C@@H]6C(=O)N5C)nn4)CCN(CP(=O)(O)CCC(=O)NCCCn4cc(CCC(=O)NCCCC[C@H]5C(=O)N[C@@H](Cc6ccccc6)C(=O)N[C@@H](CCCNC(=N)N)C(=O)NCC(=O)N[C@@H](CC(=O)O)C(=O)N[C@@H](CC(C)C)C(=O)N[C@@H](C)C(=O)N[C@@H](Cc6ccccc6)C(=O)N6CCC[C@@H]6C(=O)N5C)nn4)CC3)nn2)N(C)C(=O)[C@H]2CCCN2C(=O)[C@H](Cc2ccccc2)NC(=O)[C@H](C)NC1=O (68Ga complex, metal not drawn) [Y0] | −1.4 to −1.5 | -1.5 ± 0.1 | 2.4 ± 0.38 %ID/g | 4.01 ± 0.74 %ID/g | 2.13 ± 0.42 %ID/g | 90.7 ± 6.7 %ID/g | 5.74 ± 1.36 %ID/g | 7.55 ± 0.78 %ID/g | 16.9 ± 5.34 %ID/g | 1.1 ± 0.22 %ID/g | 0.91 ± 0.22 %ID/g | 4.2 ± 1.07 %ID/g | 5.21 ± 1.05 %ID/g | 10.3 ± 1.62 %ID/g | 8.73 ± 0.81 %ID/g |  |  |  |  |  | 
2 | CC(C)C[C@@H]1NC(=O)[C@H](CC(=O)O)NC(=O)CNC(=O)[C@H](CCCNC(=N)N)NC(=O)[C@H](Cc2ccccc2)NC(=O)[C@H](CCCCNC(=O)CCc2cn(CCCNC(=O)CCP(=O)(O)CN3CCN(CP(=O)(O)CCC(=O)NCCCn4cc(CCC(=O)NCCCC[C@H]5C(=O)N[C@@H](Cc6ccccc6)C(=O)N[C@@H](CCCNC(=N)N)C(=O)NCC(=O)N[C@@H](CC(=O)O)C(=O)N[C@@H](CC(C)C)C(=O)N[C@@H](C)C(=O)N[C@@H](Cc6ccccc6)C(=O)N6CCC[C@@H]6C(=O)N5C)nn4)CCN(CP(=O)(O)CCC(=O)NCCCn4cc(CCC(=O)NCCCC[C@H]5C(=O)N[C@@H](Cc6ccccc6)C(=O)N[C@@H](CCCNC(=N)N)C(=O)NCC(=O)N[C@@H](CC(=O)O)C(=O)N[C@@H](CC(C)C)C(=O)N[C@@H](C)C(=O)N[C@@H](Cc6ccc(O)cc6)C(=O)N6CCC[C@@H]6C(=O)N5C)nn4)CC3)nn2)N(C)C(=O)[C@H]2CCCN2C(=O)[C@H](Cc2ccccc2)NC(=O)[C@H](C)NC1=O (68Ga complex, metal not drawn) [Y1F] | −1.4 to −1.5 | -1.4 ± 0.1 | 1.26 ± 0.24 %ID/g | 2.57 ± 0.33 %ID/g | 1.2 ± 0.16 %ID/g | 111 ± 15.3 %ID/g | 4.43 ± 1.28 %ID/g | 3.86 ± 0.17 %ID/g | 8.81 ± 0.64 %ID/g | 0.97 ± 0.48 %ID/g | 0.61 ± 0.1 %ID/g | 2.86 ± 0.57 %ID/g | 3.48 ± 0.49 %ID/g | 7.37 ± 1.23 %ID/g | 8.08 ± 1.35 %ID/g | 6.5 ± 0.8 | 3.2 ± 0.6 | 6.8 ± 1.2 | 0.1 | 2 ± 0.9 | tissue to tissue ratio at 1.5 h (in vivo; tumor/organ ratio Liver): 2.1 ± 0.4; tissue to tissue ratio at 1.5 h (in vivo; tumor/organ ratio Lung): 0.9 ± 0.1; tissue to tissue ratio at 1.5 h (in vivo; tumor/organ ratio Muscle): 9.5 ± 3.2; tissue to tissue ratio at 1.5 h (in vivo; tumor/organ ratio Pancreas): 13.3 ± 2.3; tissue to tissue ratio at 1.5 h (in vivo; [4]): 2.9 ± 0.9; tissue to tissue ratio at 1.5 h (in vivo; tumor/organ ratio Spleen): 2.4 ± 0.2; tissue to tissue ratio at 1.5 h (in vivo; [5]): 1.1 ± 0.3
3 | CC(C)C[C@@H]1NC(=O)[C@H](CC(=O)O)NC(=O)CNC(=O)[C@H](CCCNC(=N)N)NC(=O)[C@H](Cc2ccccc2)NC(=O)[C@H](CCCCNC(=O)CCc2cn(CCCNC(=O)CCP(=O)(O)CN3CCN(CP(=O)(O)CCC(=O)NCCCn4cc(CCC(=O)NCCCC[C@H]5C(=O)N[C@@H](Cc6ccccc6)C(=O)N[C@@H](CCCNC(=N)N)C(=O)NCC(=O)N[C@@H](CC(=O)O)C(=O)N[C@@H](CC(C)C)C(=O)N[C@@H](C)C(=O)N[C@@H](Cc6ccccc6)C(=O)N6CCC[C@@H]6C(=O)N5C)nn4)CCN(CP(=O)(O)CCC(=O)NCCCn4cc(CCC(=O)NCCCC[C@H]5C(=O)N[C@@H](Cc6ccc(O)cc6)C(=O)N[C@@H](CCCNC(=N)N)C(=O)NCC(=O)N[C@@H](CC(=O)O)C(=O)N[C@@H](CC(C)C)C(=O)N[C@@H](C)C(=O)N[C@@H](Cc6ccccc6)C(=O)N6CCC[C@@H]6C(=O)N5C)nn4)CC3)nn2)N(C)C(=O)[C@H]2CCCN2C(=O)[C@H](Cc2ccccc2)NC(=O)[C@H](C)NC1=O (68Ga complex, metal not drawn) [Y1Y] | −1.4 to −1.5 | -1.5 ± 0.1 | 1.57 ± 0.41 %ID/g | 2.54 ± 0.37 %ID/g | 1.54 ± 0.61 %ID/g | 91.2 ± 9.95 %ID/g | 4.1 ± 0.84 %ID/g | 4.39 ± 0.46 %ID/g | 6.76 ± 2.02 %ID/g | 0.75 ± 0.17 %ID/g | 0.64 ± 0.11 %ID/g | 2.72 ± 0.36 %ID/g | 3.85 ± 0.86 %ID/g | 6.78 ± 0.72 %ID/g | 8.16 ± 2.01 %ID/g | 5.3 ± 1.5 | 3.2 ± 0.7 | 5.7 ± 2 | 0.1 | 2 ± 0.5 | tissue to tissue ratio at 1.5 h (in vivo; tumor/organ ratio Liver): 1.8 ± 0.3; tissue to tissue ratio at 1.5 h (in vivo; tumor/organ ratio Lung): 1.2 ± 0.2; tissue to tissue ratio at 1.5 h (in vivo; tumor/organ ratio Muscle): 11.2 ± 3.4; tissue to tissue ratio at 1.5 h (in vivo; tumor/organ ratio Pancreas): 12.7 ± 2.9; tissue to tissue ratio at 1.5 h (in vivo; [4]): 3 ± 0.7; tissue to tissue ratio at 1.5 h (in vivo; tumor/organ ratio Spleen): 2.2 ± 0.5; tissue to tissue ratio at 1.5 h (in vivo; [5]): 1.2 ± 0.2
4 | CC(C)C[C@@H]1NC(=O)[C@H](CC(=O)O)NC(=O)CNC(=O)[C@H](CCCNC(=N)N)NC(=O)[C@H](Cc2ccccc2)NC(=O)[C@H](CCCCNC(=O)CCc2cn(CCCNC(=O)CCP(=O)(O)CN3CCN(CP(=O)(O)CCC(=O)NCCCn4cc(CCC(=O)NCCCC[C@H]5C(=O)N[C@@H](Cc6ccccc6)C(=O)N[C@@H](CCCNC(=N)N)C(=O)NCC(=O)N[C@@H](CC(=O)O)C(=O)N[C@@H](CC(C)C)C(=O)N[C@@H](C)C(=O)N[C@@H](Cc6ccc(O)cc6)C(=O)N6CCC[C@@H]6C(=O)N5C)nn4)CCN(CP(=O)(O)CCC(=O)NCCCn4cc(CCC(=O)NCCCC[C@H]5C(=O)N[C@@H](Cc6ccccc6)C(=O)N[C@@H](CCCNC(=N)N)C(=O)NCC(=O)N[C@@H](CC(=O)O)C(=O)N[C@@H](CC(C)C)C(=O)N[C@@H](C)C(=O)N[C@@H](Cc6ccc(O)cc6)C(=O)N6CCC[C@@H]6C(=O)N5C)nn4)CC3)nn2)N(C)C(=O)[C@H]2CCCN2C(=O)[C@H](Cc2ccccc2)NC(=O)[C@H](C)NC1=O (68Ga complex, metal not drawn) [Y2F] | −1.4 to −1.5 | -1.5 ± 0.1 | 0.84 ± 0.07 %ID/g | 1.62 ± 0.2 %ID/g | 0.76 ± 0.06 %ID/g | 107 ± 7.49 %ID/g | 3.96 ± 1.16 %ID/g | 2.09 ± 0.17 %ID/g | 5.62 ± 1.34 %ID/g | 0.66 ± 0.12 %ID/g | 0.38 ± 0.04 %ID/g | 2.51 ± 0.5 %ID/g | 3.84 ± 1.14 %ID/g | 6.99 ± 3.4 %ID/g | 7.99 ± 1.62 %ID/g | 9.6 ± 2.2 | 4.9 ± 1 | 10.6 ± 2 | 0.1 | 2.1 ± 0.5 | tissue to tissue ratio at 1.5 h (in vivo; tumor/organ ratio Liver): 3.8 ± 0.9; tissue to tissue ratio at 1.5 h (in vivo; tumor/organ ratio Lung): 1.4 ± 0.2; tissue to tissue ratio at 1.5 h (in vivo; tumor/organ ratio Muscle): 12.2 ± 1.5; tissue to tissue ratio at 1.5 h (in vivo; tumor/organ ratio Pancreas): 20.8 ± 3.9; tissue to tissue ratio at 1.5 h (in vivo; [4]): 3.2 ± 0.4; tissue to tissue ratio at 1.5 h (in vivo; tumor/organ ratio Spleen): 2.2 ± 0.5; tissue to tissue ratio at 1.5 h (in vivo; [5]): 1.3 ± 0.3
